Source: the supplement of paper PMC9732359
± gives the uncertainty stated by the source.

Assay: protein stability index of a GFP-peptide fusion (yeast GPS) (PSI 1-4); higher = more stable; sorted into four equal gates, so the index is relative within each strain
Conditions: doa10∆
In short: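 Mid-log yeast cultures in leucine-free medium, carrying a pooled plasmid library, were sorted into four equal gates by their GFP/Cherry fluorescence ratio. Each plasmid expressed Cherry along with GFP fused upstream of a tiled 17-residue yeast protein peptide. Plasmids recovered from each gate were PCR-amplified and Illumina-sequenced, with reads assigned to strains by barcodes. The protein stability index was obtained by summing each gate's read frequency weighted by its gate number.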

Sequence	protein stability index
DATRVFVNGVWHGVHRN [RPB2]	3.04 ± 0.093

Same assay, conditions: pdr5∆

Sequence	protein stability index
AIAGNSTTNSDVSLLLQ [RGR1]	2.19 ± 0.082
AIGTKRYDSNSGGEREI [RPT2]	3.54 ± 0.11
AIGYEPLSLTHRDKNKM [DIS3]	2.9 ± 0.061
AIHIFESYYNWKYNNFL [YML103C/NUP188]	1.6 ± 0.1
AILKLLENMPHPWEQAK [PRP8]	2.05 ± 0.088
AILQEKILSILNRSHFA [ECM29]	2.15 ± 0.052
AILYTKPGHVLQEEWDQ [YGR119C/NUP57]	3.25 ± 0.14
AIQFVKENELLFGEKSI [YCS4]	2.09 ± 0.064
AISKKDLEEVKRFQVLY [SEC65]	3.02 ± 0.1
AISLGLLKGSIDQVNEL [RPN9]	3.08 ± 0.066
AKCNSLLQLKYFSNKTS [POP5]	2.09 ± 0.055
AKILSQAPTELELQVAQ [RPS7A]	2.75 ± 0.052
AKKLPNGNWEVGVHIAD [DIS3]	2.25 ± 0.15
AKKQNYKLTNDEEGIFS [YCG1]	3.45 ± 0.1
AKKTIQNPLNKSQNTAL [SIR4]	3.1 ± 0.054
AKLESLLENSVDKNFDK [MTW1]	3.24 ± 0.076
AKNRILASKIKQYERLR [RRI1]	2.4 ± 0.049
AKRNLPHTTLVNECIAQ [CDC53]	2.48 ± 0.059
ALAFGYVKSLHKQISAE [SIN4]	2.21 ± 0.064
ALKGPVRDKLDEYQAAV [DPB4]	3.29 ± 0.05
ALKKSRSKGKQNRPYNH [RPC17]	2.46 ± 0.1
ALNGIDINTVNTNLMNG [GRR1]	3.2 ± 0.052
ALNKISKYYPGVIIKVE [SNU114]	1.53 ± 0.07
ALTVQEVLNRVASRHPS [YDL116W/NUP84]	3.15 ± 0.073
AMANAPGNNIPYMNHKN [GAL11]	3.26 ± 0.19

Sequence	protein stability index
AMIDAGALEEITKDHKV [FAS2]	2.99 ± 0.14
AMKELAEKKIPLVIRRY [RPO26]	1.55 ± 0.092
AMTAAEHGLHAPAYAWS [CYT1]	3.31 ± 0.097
ANEDEEEQLDALECRLA [CSN12]	2.65 ± 0.28
ANFIFSPASGIVDKYIG [RPT4]	2.79 ± 0.097
ANKEKKRAEKAARKAEK [RPL24B]	3.36 ± 0.082
ANLLFKKEKLKQENSTL [RPC82]	2.24 ± 0.067
ANVFRLENQKDLVIVDE [MTW1]	3.36 ± 0.15
ANVNASAMPAPYMPYYY [DSN1]	2.88 ± 0.077
APEKDIWVGEWKEVLAH [RPO31]	2.17 ± 0.082
APEQQVQQFAQLPVGFK [UBP6]	2.99 ± 0.052
APHDSEATLLTNSNNGS [SNF5]	2.85 ± 0.061
APKGSTDPKELYNNAHV [RPC40]	2.96 ± 0.082
APMRLATAALEIILKLC [YJL039C/NUP192]	2.06 ± 0.043
APTRELVQQIQKETQKV [PRP28]	3.14 ± 0.078
APVETKKKRFEIKKWTA [HRT1]	3.48 ± 0.13
AQQQKRGGFGGRNRGRP [RPS2]	3.26 ± 0.13
AQSHQRFNAKVSMVKRA [CDC53]	2.09 ± 0.061
ARAAKIAPRPLDLLRPV [RPL13B]	3.04 ± 0.064
ARDLATMTYEEVAKRLV [FAS1]	3.3 ± 0.082
ARDLLDDLEKTLDKKDS [RPN9]	2.75 ± 0.11
ARILARSERKRTKISRG [ITC1]	3.1 ± 0.074
ASEREELALIEEAYDNP [PRP8]	3.23 ± 0.096
ASHNVRRIPKRMRNRAL [POP1]	2.34 ± 0.058
ASIESADILCPLLESFI [IRR1]	2.48 ± 0.11

Sequence	protein stability index
ASLNLLQLAPGAHLGRF [RPL4A]	3.03 ± 0.15
ASRDKTLISWKLTGDDQ [ASC1]	1.68 ± 0.13
ASRNVWSFYNGNVLIND [SNU114]	3.1 ± 0.082
ASSNFPFLNETKPGVYY [RPC82]	2.43 ± 0.09
ASVVPSASSLVITALKE [RPL12A]	2.3 ± 0.051
ASYAKIEIKISDPLTVF [SNU114]	2.66 ± 0.25
ATAFNKTRGPFHFRAPS [RPL16A]	3.07 ± 0.1
ATAVAHVKAGKGLIKVN [RPS16A]	1.9 ± 0.12
ATIIGIISTAIADSTHV [ECM29]	1.65 ± 0.061
ATKAINGCIFTLNPKTG [PRP8]	2.73 ± 0.076
ATLGIDPPKGILLYGPP [RPT1]	2.96 ± 0.077
ATNTFGSNQQSSTGGGL [YGR119C/NUP57]	3.23 ± 0.076
ATSDNKTTNTTPSFSFG [YJL041W/NSP1]	3.05 ± 0.076
ATSSTNANAGLFNKPPS [YOR098C/NUP1]	3.06 ± 0.073
ATVPSGRPETYIWRYLP [RPO31]	1.81 ± 0.092
AVATPKAEVTQLSNGIV [COR1]	3.11 ± 0.066
AVDAKQLAQIRQFLKAN [YML103C/NUP188]	3.06 ± 0.079
AVKDQQKYTKEMIDSHI [SNF2]	2.68 ± 0.051
AVKLGDLKKFTSTITKY [RPN3]	2.51 ± 0.044
AVNMTQNIMTLPDGKNG [MED6]	3.04 ± 0.056
AVTEATSTNGDSENNEE [RGR1]	3.3 ± 0.076
AVVGQQIISGNRVPDGF [RPO31]	3.28 ± 0.28
AVVVGTGNIKHEDLVNS [COR1]	2.79 ± 0.12
AVYFADTSGLKISNSEF [SIN4]	3.32 ± 0.08
AYSMGAQNQGGQVSMSQ [PGD1]	3.2 ± 0.084

Sequence	protein stability index
AYVVNDTAPKPNIVEID [DLS1]	3.22 ± 0.19
CAYTGTGDVLLIQDLLH [RPN1]	2.88 ± 0.064
CCINAAFLALVDAGIAL [RRP46]	2.88 ± 0.07
CCTKFFTMMTSEPLTLK [PCI8]	2.15 ± 0.057
CDYYNTFLLNNKNIDIG [RPN2]	3.04 ± 0.076
CEISGSIEQLRNVVEDI [BRN1]	3.33 ± 0.2
CFMHLLVQLFLWDSKEL [RPN3]	1.6 ± 0.064
CINELDNWNAPLIMATC [RPO31]	2.66 ± 0.14
CKLFDKISFNLRLKLFL [SRB8]	1.23 ± 0.055
CLNCEKSKLFEWKSEFV [SNM1]	2.68 ± 0.13
CLSPGAFLSKVPEFFQT [SRP14]	2.44 ± 0.13
CMEVASAFMKFSKAIEW [BRR2]	2.21 ± 0.047
CRDSDDHKRFIVFHNEF [DIS3]	3.26 ± 0.084
CRQEFLERVKANAAKRA [RPL21A]	1.33 ± 0.23
CRSCPYEFPIEGIEIYD [RPC11]	2.32 ± 0.11
CTEAGLLALRERRMQVT [RPT2]	2.9 ± 0.15
CTESTRENALYDYYALQ [SNF2]	2.25 ± 0.064
CTQMTDEGLLNMVSLRG [GRR1]	2.66 ± 0.083
CVAAWGVCNHAFHLHCI [HRT1]	1.75 ± 0.065
CWLSNIDIQTQDLNQRF [RRI1]	3.23 ± 0.11
DAHGVTQARVITGNKIM [RPS13]	1.61 ± 0.071
DAIIPFAAIPEQGIELE [FAS2]	2.84 ± 0.2
DAITVKDVKAWAGKRLW [COR1]	2.8 ± 0.067
DAKKARFWSFMKTQRFV [SIR4]	2.88 ± 0.069
